This is an account of results in US20220119534A1 (DRAGONFLY THERAPEUTICS, published 2022).

The target in assay [1] is T1, Human CLEC12A expressed on cells (Ba/F3-hCLEC12A, PL21, HL60) (human, UniProt Q5QGZ9 1-265).
T1 sequence: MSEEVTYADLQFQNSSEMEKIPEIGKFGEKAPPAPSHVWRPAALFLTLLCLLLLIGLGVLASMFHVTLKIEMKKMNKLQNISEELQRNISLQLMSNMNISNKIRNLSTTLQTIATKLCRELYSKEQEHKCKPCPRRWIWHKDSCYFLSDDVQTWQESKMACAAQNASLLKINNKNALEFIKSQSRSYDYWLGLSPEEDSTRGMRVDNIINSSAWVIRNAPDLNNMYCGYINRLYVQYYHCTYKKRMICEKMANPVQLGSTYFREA
The experiment in a line: cell-based or functional assay.

Assay [2] concerns the target T2, Human CLEC12A-His (recombinant, K244 WT) (human, UniProt Q5QGZ9 65-265).
T2 construct: Made in house (Dragonfly Tx); also called hCLEC12A; hCLEC12A-His; not shown: His tag
T2 sequence: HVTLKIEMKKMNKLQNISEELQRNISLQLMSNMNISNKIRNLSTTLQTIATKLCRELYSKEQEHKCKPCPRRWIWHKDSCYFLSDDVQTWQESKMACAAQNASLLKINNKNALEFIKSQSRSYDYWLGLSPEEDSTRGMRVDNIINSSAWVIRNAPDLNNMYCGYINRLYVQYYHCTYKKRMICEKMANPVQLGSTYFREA
Briefly: SPR, two-state fit (ka1); fully purified protein after low pH hold. A general note: In SPR one partner is held on a chip, and binding of the other changes the refractive index at the surface.

In another assay the target is T3, Human FcRn (human, UniProt P55899 24-297; P61769 21-119).
T3 construct: Bought recombinant receptor; also called hFcRn
The experiment in a line: SPR, steady state fit.

The next assay has as its target T4, Cynomolgus FcRn (cynomolgus monkey, UniProt Q8SPV9 24-297; Q8SPW0 21-119).
T4 construct: Bought recombinant receptor; also called cFcRn; Cyno FcRn
The experiment in a line: SPR, steady state fit.

The next assay deals with T5, recombinant human FcRn (human, UniProt P55899 24-297; P61769 21-119).
T5 construct: also called hFcRn
Briefly: SPR 25C, pH 6.0, steady state, average; pH 6.0; average of four replicates.

Assay [3] concerns the target T6, recombinant cynomolgus CD16 (cynomolgus monkey, UniProt Q8SPW2 17-208, biotinylated).
T6 construct: also called cFcγRIII; cyno CD16
The experiment in a line: SPR 25C, steady state.
From the text: Human and cyno CD64, high and low affinity alleles of CD16a (V158 and F158, respectively), two alleles of CD32a (H131 and R131), CD16b, CD32b and cynomolgus CD16 were captured via biotin on a primed Biacore chip, prepared according to the manufacturer's instructions.

The target of assay [4] is T7, recombinant cynomolgus CD64 (cynomolgus monkey, UniProt A0A2K5U901 33-309, Biotinylated for capture on the CAP chip; the biotin site is not stated.).
T7 construct: also called cFcγRI; cyno CD64; not shown: The vendor's biotinylation and purification tag, used for capture via biotin
Briefly: SPR, summary table.

Numbering of substitutions follows the chain as printed. Numbers in names are those of the source. Where “and” joins values, the source holds several entries; their conditions need not be identical. Identical values can stand only once.

A word on the kon: it is the rate constant with which the complex forms. By Kd is commonly meant the equilibrium constant for the complex coming apart.

T6 sequence (Q8SPW2 17-208 limits assumed): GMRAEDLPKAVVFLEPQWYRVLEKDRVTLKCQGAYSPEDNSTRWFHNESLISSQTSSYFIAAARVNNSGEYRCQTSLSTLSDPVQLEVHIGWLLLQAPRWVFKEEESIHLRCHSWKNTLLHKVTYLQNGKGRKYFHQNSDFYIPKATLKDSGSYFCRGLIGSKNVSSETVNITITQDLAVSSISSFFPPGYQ
T4 sequence (Q8SPV9 24-297 limits assumed, chain 1 of 2): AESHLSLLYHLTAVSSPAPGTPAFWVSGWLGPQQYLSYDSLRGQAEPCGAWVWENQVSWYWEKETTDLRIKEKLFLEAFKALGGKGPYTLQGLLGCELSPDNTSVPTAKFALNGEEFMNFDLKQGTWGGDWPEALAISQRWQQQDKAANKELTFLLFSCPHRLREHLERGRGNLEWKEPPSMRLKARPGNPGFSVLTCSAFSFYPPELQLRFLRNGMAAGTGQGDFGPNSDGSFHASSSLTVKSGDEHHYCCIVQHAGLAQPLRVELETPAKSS
T4 sequence (Q8SPW0 21-119 limits assumed, chain 2 of 2): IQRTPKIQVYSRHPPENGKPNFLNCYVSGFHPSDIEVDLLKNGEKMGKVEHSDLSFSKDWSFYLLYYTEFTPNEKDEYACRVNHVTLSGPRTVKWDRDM
T3 sequence (P55899 24-297 limits assumed, chain 1 of 2): as the sequence (Q8SPV9 24-297 limits assumed, chain 1 of 2) above, with D39N, Q44E, S99G, G189S, N190S, M217L, T269S counted along it
T3 sequence (P61769 21-119 limits assumed, chain 2 of 2): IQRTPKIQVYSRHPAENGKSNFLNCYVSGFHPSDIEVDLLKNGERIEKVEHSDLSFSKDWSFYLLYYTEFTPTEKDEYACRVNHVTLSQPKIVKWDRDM
T7 sequence (A0A2K5U901 entry or part of it limits assumed): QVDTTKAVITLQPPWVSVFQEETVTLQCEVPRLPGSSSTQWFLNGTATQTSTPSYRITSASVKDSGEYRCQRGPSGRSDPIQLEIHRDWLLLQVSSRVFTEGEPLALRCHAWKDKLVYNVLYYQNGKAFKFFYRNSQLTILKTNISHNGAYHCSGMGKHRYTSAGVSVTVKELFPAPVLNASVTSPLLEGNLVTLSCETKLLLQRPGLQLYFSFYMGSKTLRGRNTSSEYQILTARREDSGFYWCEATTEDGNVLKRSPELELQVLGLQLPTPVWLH
T5 sequence (P55899 24-297 limits assumed, chain 1 of 2): as the sequence (Q8SPV9 24-297 limits assumed, chain 1 of 2) above, with D39N, Q44E, S99G, G189S, N190S, M217L, T269S counted along it
T5 sequence (P61769 21-119 limits assumed, chain 2 of 2): as the sequence (P61769 21-119 limits assumed, chain 2 of 2) above

B1: AB0089 TriNKET (bispecific antibody, human IgG1, kappa)
chain: QLQLQESGPGLVKPSETLSLTCTVSGFSLTNYGLHWIRQPPGKCLEWIGVIWVGGATDYNPSLKSRVTISVDTSKNQFSLKLSSVQAADTAVYYCAKGDYGDTLDYWGQGTLVTVSSGGGGSGGGGSGGGGSGGGGSDIQMTQSPSSLSASVGDRVTITCHASQNINFWLSWYQQKPGKAPKLLIYEASNLHTGVPSRFSGSGSGTDFTLTISSLQPEDFATYYCQQSHSYPLTFGCGTKLEIKGSDKTHTCPPCPAPELLGGPSVFLFPPKPKDTLMISRTPEVTCVVVDVSHEDPEVKFNWYVDGVEVHNAKTKPREEQYNSTYRVVSVLTVLHQDWLNGKEYKCKVSNKALPAPIEKTISKAKGQPREPRVYTLPPCRDELTKNQVSLTCLVKGFYPSDIAVEWESNGQPENNYKTTPPVLVSDGSFTLYSKLTVDKSRWQQGNVFSCSVMHEALHNHYTQKSLSLSPG
heavy: EVQLVESGGGLVKPGGSLRLSCAASGFTFSSYSMNWVRQAPGKGLEWVSSISSSSSYIYYADSVKGRFTISRDNAKNSLYLQMNSLRAEDTAVYYCARGAPIGAAAGWFDPWGQGTLVTVSSASTKGPSVFPLAPSSKSTSGGTAALGCLVKDYFPEPVTVSWNSGALTSGVHTFPAVLQSSGLYSLSSVVTVPSSSLGTQTYICNVNHKPSNTKVDKKVEPKSCDKTHTCPPCPAPELLGGPSVFLFPPKPKDTLMISRTPEVTCVVVDVSHEDPEVKFNWYVDGVEVHNAKTKPREEQYNSTYRVVSVLTVLHQDWLNGKEYKCKVSNKALPAPIEKTISKAKGQPREPQVCTLPPSRDELTENQVSLTCLVKGFYPSDIAVEWESNGQPENNYKTTPPVLDSDGSFFLYSWLTVDKSRWQQGNVFSCSVMHEALHNHYTQKSLSLSPG
light: DIQMTQSPSSVSASVGDRVTITCRASQGISSWLAWYQQKPGKAPKLLIYAASSLQSGVPSRFSGSGSGTDFTLTISSLQPEDFATYYCQQGVSFPRTFGGGTKVEIKRTVAAPSVFIFPPSDEQLKSGTASVVCLLNNFYPREAKVQWKVDNALQSGNSQESVTEQDSKDSTYSLSSTLTLSKADYEKHKVYACEVTHQGLSSPVTKSFNRGEC
notes: F3' format heterodimer of three chains; human IgG1 Fc with EW-RVT and Y349C/S354C mutations; also called AB0089 Lot AB0089-002; CLEC12A TriNKET AB0089
Turning to B1, in assay [1], the “EC50, KHYG-1-CD16aV cytotoxicity assay; after 4 wks 40C in HST pH 6.0” value turned out to be 0.17 nM and the “EC50, KHYG-1-CD16aV cytotoxicity assay; control sample” value stood at 0.16 nM. The kon in assay [2] was found to be 1.02e+07 M⁻¹ s⁻¹.

B2: AB0192 TriNKET (other)
chain: EVQLVESGGGVVQPGGSLRLSCAASGFTFNAFGMHWVRQAPGKCLEWVAFISSGSTSIYYANTVKGRFTISRDNSKNTLYLQMNSLRAEDTAVYYCARDGYPTGGAMDYWGQGTSVTVSSGGGGSGGGGSGGGGSGGGGSDIQMTQSPSSLSASVGDRVTITCKASQDIYNYLSWFQQKPGKAPKPLIYRANILVSGVPSRFSGSGSGQDYTFTISSLQPEDIATYYCLQFDAFPFTFGCGTKLEIKGSDKTHTCPPCPAPELLGGPSVFLFPPKPKDTLMISRTPEVTCVVVDVSHEDPEVKFNWYVDGVEVHNAKTKPREEQYNSTYRVVSVLTVLHQDWLNGKEYKCKVSNKALPAPIEKTISKAKGQPREPRVYTLPPCRDELTKNQVSLTCLVKGFYPSDIAVEWESNGQPENNYKTTPPVLVSDGSFTLYSKLTVDKSRWQQGNVFSCSVMHEALHNHYTQKSLSLSPG
heavy: B1 heavy
light: B1 light
notes: the condition stands under assay; also called AB0192 Lot AB0192-005
B2: the Kd is 1500 nM and 1300 nM with Human FcRn; 1500 nM and 1400 nM and 1200 nM with Cynomolgus FcRn.

B3: F3'-1602 TriNKET (other)
chain: B1 chain with V53S, A56K, V71K, G98Y, G101D, T103S, D207R, F220I
heavy: B1 heavy
light: B1 light
notes: CLEC12A scFv-Fc, NKG2D A49MI Fab-Fc, human IgG1 Fc; also called AB0237
On to B3, for which the Kd is 1400 nM in the assay with recombinant human FcRn; 315 nM and 294 nM and 302 nM in assay [3]; 2 nM in assay [4].
